Reference: article PMC7785020, “A unique hormonal recognition feature of the human glucagon-like peptide-2 receptor” (Cell Research, 2020)
Substitutions are numbered along the chain they refer to.

Key:
GLP-2R W340^5.36A = target: T1, GLP-2R W340^5.36A (Homo sapiens, UniProt O95838, W340A); assay: radioligand competition binding, W340^5.36A; set-up: WT (1–553); expressed in transfected cells; conditions: COS-7, W340^5.36A; [^125I]GLP-2(1–33, M10Y) 10–15 pM, 4 h, 4 °C; mean ± SEM, n ≥ 3 in duplicate
T1 sequence (O95838 1-553 W340A): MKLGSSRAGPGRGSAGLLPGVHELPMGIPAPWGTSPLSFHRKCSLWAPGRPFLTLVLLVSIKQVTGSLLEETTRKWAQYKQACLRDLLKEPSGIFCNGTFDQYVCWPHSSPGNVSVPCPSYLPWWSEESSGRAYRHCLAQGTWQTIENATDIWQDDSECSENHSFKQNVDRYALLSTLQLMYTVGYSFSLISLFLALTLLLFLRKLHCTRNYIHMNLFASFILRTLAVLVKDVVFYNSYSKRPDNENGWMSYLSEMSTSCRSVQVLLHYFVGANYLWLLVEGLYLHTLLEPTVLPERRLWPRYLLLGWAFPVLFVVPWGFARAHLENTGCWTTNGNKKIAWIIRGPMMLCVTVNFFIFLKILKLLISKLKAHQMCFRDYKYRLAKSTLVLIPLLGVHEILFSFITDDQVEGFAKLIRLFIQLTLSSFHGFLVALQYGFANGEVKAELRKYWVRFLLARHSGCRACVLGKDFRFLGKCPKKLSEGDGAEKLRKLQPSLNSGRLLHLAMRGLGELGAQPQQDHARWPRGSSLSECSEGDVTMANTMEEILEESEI
Experimental: (§1) A stepwise oxidation reaction was performed by addition of 6 aliquots of 5 µL ChloramineT (30 µL/mL) with a 1-min interval during constant stirring. The reaction was terminated by the addition of 400 µL phase A (0.1% trifluoracetic acid) before being fractionated into 1 mL volume by reverse-phase high-performance liquid chromatography (RP-HPLC, Waters 600 SimiPrep system) on a C18 column. The iodinated protein was […] by increasing concentrations of phase B (Acetonitrile + 0.1% TFA) and tested for competitive binding ability.
(§2) One day before transfection, the COS-7 cells were seeded in 75 cm^2 culture flasks (3 million cells/flask) in DMEM, containing 3.9 g/L NaHCO3 and supplemented with 10% FBS, 1% L-glutamine, 180 units/mL penicillin and 45 µg/mL streptomycin. After an overnight culture at 37 °C, 10% CO2 and 95% air humidity, the cells were transiently transfected with different GLP-2R constructs or pcDNA3.1 vector as previously described.[52] Following 24-h incubation, the cells were transferred to Costa® microtiter plates (150,000 cells/well, PerkinElmer) to achieve a 5%–10% specific binding. […] The cells were then washed twice in binding buffer (4 °C), lysed and counted for radioactivity using a Wallac Gamma Counter (PerkinElmer).

GLP-2R N334^ECL2A = target: T2, GLP-2R N334^ECL2A (Homo sapiens, UniProt O95838, N334A); assay: radioligand competition binding, N334^ECL2A; set-up: WT (1–553); expressed in transfected cells; host or cells: COS-7; conditions: COS-7, N334^ECL2 A; [^125I]GLP-2(1–33, M10Y) 10–15 pM, 4 h, 4 °C; mean ± SEM, n ≥ 3 in duplicate
T2 sequence (O95838 1-553 N334A): T1 sequence (O95838 1-553 W340A) with N334A, A340W
Experimental: as §1, §2

[1] = target: GLP-2R W249^ECL1A (human) (UniProt O95838); assay: radioligand binding; competition on transiently transfected COS-7 cells: unlabeled GLP-2(1–33) 0.1 nM to 1 μM against 10–15 pM [125I]GLP-2(1–33, M10Y); 4 h, 4 °C; 50 mM HEPES pH 7.4, 1 mM CaCl2, 5 mM MgCl2, 0.5% BSA; three-parameter logistic fit
[2] = target: GLP-2R Y252^ECL1A (human) (UniProt O95838); assay: as above
GLP-2R Y252^ECL1A (human), sequence (O95838 whole entry Y252A): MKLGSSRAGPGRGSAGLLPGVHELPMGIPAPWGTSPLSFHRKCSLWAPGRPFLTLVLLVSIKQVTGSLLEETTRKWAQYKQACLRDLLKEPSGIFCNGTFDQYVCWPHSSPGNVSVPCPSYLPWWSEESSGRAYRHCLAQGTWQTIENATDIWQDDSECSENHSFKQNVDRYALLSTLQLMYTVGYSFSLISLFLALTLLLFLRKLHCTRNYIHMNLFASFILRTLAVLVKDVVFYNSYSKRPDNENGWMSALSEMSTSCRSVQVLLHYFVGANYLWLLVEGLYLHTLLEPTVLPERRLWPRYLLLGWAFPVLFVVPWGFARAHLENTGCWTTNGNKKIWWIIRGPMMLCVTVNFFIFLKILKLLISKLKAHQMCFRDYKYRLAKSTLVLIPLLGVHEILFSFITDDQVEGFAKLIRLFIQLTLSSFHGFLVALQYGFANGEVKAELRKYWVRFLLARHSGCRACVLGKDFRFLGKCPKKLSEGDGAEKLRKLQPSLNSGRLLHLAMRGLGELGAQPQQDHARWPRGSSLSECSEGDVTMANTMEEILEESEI

[3] = target: GLP-2R H268^3.37A (human) (UniProt O95838); assay: as above
GLP-2R H268^3.37A (human), sequence (O95838 whole entry H268A): as the sequence (O95838 whole entry Y252A) above, with A252Y, H268A counted along it

[4] = target: GLP-2R R344^5.40A (human) (UniProt O95838); assay: as above
[5] = target: GLP-2R ECL1 (poly-alanine) (human) (UniProt O95838); assay: as above
GLP-2R ECL1 (poly-alanine) (human), sequence (O95838 whole entry): as the sequence (O95838 whole entry Y252A) above, with A252Y counted along it

Compound | % Binding of WT (GLP-2R W340^5.36A) | % Binding of WT (GLP-2R N334^ECL2A) | % Binding of WT [1] | % Binding of WT [2] | % Binding of WT [3] | % Binding of WT [4] | % Binding of WT [5]
CC[C@H](C)[C@H](NC(=O)[C@H](Cc1ccccc1)NC(=O)[C@H](CC(=O)O)NC(=O)[C@H](CCCNC(=N)N)NC(=O)[C@H](C)NC(=O)[C@H](C)NC(=O)[C@H](CC(C)C)NC(=O)[C@H](CC(N)=O)NC(=O)[C@H](CC(=O)O)NC(=O)[C@H](CC(C)C)NC(=O)[C@@H](NC(=O)[C@@H](NC(=O)[C@H](CC(N)=O)NC(=O)[C@H](CCSC)NC(=O)[C@H](CCC(=O)O)NC(=O)[C@H](CC(=O)O)NC(=O)[C@H](CO)NC(=O)[C@H](Cc1ccccc1)NC(=O)[C@H](CO)NC(=O)CNC(=O)[C@H](CC(=O)O)NC(=O)[C@H](C)NC(=O)[C@@H](N)Cc1c[nH]cn1)[C@@H](C)O)[C@@H](C)CC)C(=O)N[C@@H](CC(N)=O)C(=O)N[C@@H](Cc1c[nH]c2ccccc12)C(=O)N[C@@H](CC(C)C)C(=O)N[C@H](C(=O)N[C@@H](CCC(N)=O)C(=O)N[C@H](C(=O)N[C@@H](CCCCN)C(=O)N[C@H](C(=O)N[C@H](C(=O)N[C@@H](CC(=O)O)C(=O)O)[C@@H](C)O)[C@@H](C)CC)[C@@H](C)O)[C@@H](C)CC [Human GLP-2 (1–33)] | 7.3 ± 0.6 % | 2.4 ± 1.3 % |  |  |  |  | 
CC[C@H](C)[C@H](NC(=O)[C@H](Cc1ccccc1)NC(=O)[C@H](CC(=O)O)NC(=O)[C@H](CCCNC(=N)N)NC(=O)[C@H](C)NC(=O)[C@H](C)NC(=O)[C@H](CC(C)C)NC(=O)[C@H](CC(N)=O)NC(=O)[C@H](CC(=O)O)NC(=O)[C@H](CC(C)C)NC(=O)[C@@H](NC(=O)[C@@H](NC(=O)[C@H](CC(N)=O)NC(=O)[C@H](CCSC)NC(=O)[C@H](CCC(=O)O)NC(=O)[C@H](CC(=O)O)NC(=O)[C@H](CO)NC(=O)[C@H](Cc1ccccc1)NC(=O)[C@H](CO)NC(=O)CNC(=O)[C@H](CC(=O)O)NC(=O)CNC(=O)[C@@H](N)Cc1c[nH]cn1)[C@@H](C)O)[C@@H](C)CC)C(=O)N[C@@H](CC(N)=O)C(=O)N[C@@H](Cc1c[nH]c2ccccc12)C(=O)N[C@@H](CC(C)C)C(=O)N[C@H](C(=O)N[C@@H](CCC(N)=O)C(=O)N[C@H](C(=O)N[C@@H](CCCCN)C(=O)N[C@H](C(=O)N[C@H](C(=O)N[C@@H](CC(=O)O)C(=O)O)[C@@H](C)O)[C@@H](C)CC)[C@@H](C)O)[C@@H](C)CC [Teduglutide] | 8.6 ± 1.8 % | 2.0 ± 2.1 % |  |  |  |  | 
[^125I]GLP-2(1–33, M10Y) (peptide) |  |  | 2.2% | 8.3% | 2.1% | 5% | 3%
